Measured values reported in patent US20200299407 (published 2020).
Where a chain is given by its changes, count along the chain named.

B1: Pertuzumab (antibody)
chain 1: EVQLVESGGGLVQPGGSLRLSCAASGFTFTDYTMDWVRQAPGKGLEWVADVNPNSGGSIYNQRFKGRFTLSVDRSKNTLYLQMNSLRAEDTAVYYCARNLGPSFYFDYWGQGTLVTVSS
chain 2: DIQMTQSPSSLSASVGDRVTITCKASQDVSIGVAWYQQKPGKAPKLLIYSASYRYTGVPSRFSGSGSGTDFTLTISSLQPEDFATYYCQQYYIYPYTFGQGTKVEIK
B2: Herceptarg G2 Pertuzumab arm (antibody, V domains shown)
VH: B1 chain 1 with S58Y, Y60V, Q62R
VL: B1 chain 2 with I31T, G32A, Y53F, G66R, Y91H, I93T, Y94T, Y96P
B3: Herceptarg E1 Pertuzumab arm (antibody, V domains shown)
VH: B1 chain 1 with T30A, S103W
VL: B1 chain 2 with I31T, G32A, Y53F, G66R, Y91H, I93T, Y94T, Y96P
B4: Herceptarg CLC Trastuzumab arm (E1) (antibody, V domains shown)
VH: not shown
VL: B1 chain 2 with I31T, G32A, Y53F, G66R, Y91H, I93T, Y94T, Y96P
B5: Herceptarg D1-derived Pertuzumab arm (antibody, V domains shown)
VH: B1 chain 1 with T30N, Y60V, Q62R, S103F
VL: B1 chain 2 with I31T, G32A, Y53F, G66R, Y91H, I93T, Y94T, Y96P
B6: Herceptarg D1-derived Trastuzumab arm (antibody, V domains shown)
VH: not shown
VL: B1 chain 2 with I31T, G32A, Y53F, G66R, Y91H, I93T, Y94T, Y96P
B7: Herceptarg G2 Trastuzumab arm (antibody, V domains shown)
VH: not shown
VL: B1 chain 2 with I31T, G32A, Y53F, G66R, Y91H, I93T, Y94T, Y96P
B8: Herceptarg CrossMab Trastuzumab arm (antibody, V domains shown)
VH: QVQLVQSGAEVKKPGASVKVSCKASGFNIKDTYIHWVRQAPGQGLEWMGRIYPTNGYTRYAQKFQGRVTMTRDTSISTAYMELSRLRSDDTAVYYCSRWGGEGFYAMDYWGQGTMVTVSS
VL: DIQLTQPPSVSVAPGQTARITCGASQDVSTAVAWYQQKPGQAPVLVVYSASFLYSGIPSRFSGSRSGTDFTLTISRVEAGDEADYYCQQHYTTPPTFGTGTKVTVLR
B9: VH23-DANG/VL0(rb) (antibody, V domains shown)
VH: QSMQESGPGLVKPSQTLSLTCTVSGFSLSSYAMSWIRQHPGKGLEWIGYIWSGGSTDYASWAKSRVTISKTSTTVSLKLSSVTAADTAVYYCARRYGTSYPDYGDANGFDPWGQGTLVTVSS
VL: AYDMTQTPASVEVAVGGTVTIKCQASQSISSYLSWYQQKPGQRPKLLIYRASTLASGVSSRFKGSGSGTQFTLTISGVECADAATYYCQQCYSSSNVDNTFGGGTEVVVKR
B10: Herceptarg CrossMab Pertuzumab arm (antibody)
chain 1: not shown
chain 2: DIQMTQSPSSLSASVGDRVTITCKASQDVSIGVAWYQQKPGKAPKLLIYSASYRYTGVPSRFSGSGSGTDFTLTISSLQPEDFATYYCQQYYIYPYTFGQGTKVEIKSSASTKGPSVFPLAPSSKSTSGGTAALGCLVKDYFPEPVTVSWNSGALTSGVHTFPAVLQSSGLYSLSSVVTVPSSSLGTQTYICNVNHKPSNTKVDKKVEPKSC

Assays:
[1] = biological target: Her2 ECD (Pertuzumab KO)-Fc knob (human); assay: SPR
[2] = biological target: HER2 ECD (aa 1-629 mature) (human); assay: SPR
[3] = biological target: Her2 ECD (Trastuzumab KO)-Fc knob (human); assay: SPR
[4] = biological target: Her2 ECD (Trastuzumab KO)-Fc knob (human); assay: SPR, 25C
[5] = biological target: Her2 ECD (Pertuzumab KO)-Fc knob (human); assay: SPR, 25C
[6] = biological target: human transferrin receptor (human, UniProt P02786); assay: SPR
Sequence of human transferrin receptor (P02786 89-760): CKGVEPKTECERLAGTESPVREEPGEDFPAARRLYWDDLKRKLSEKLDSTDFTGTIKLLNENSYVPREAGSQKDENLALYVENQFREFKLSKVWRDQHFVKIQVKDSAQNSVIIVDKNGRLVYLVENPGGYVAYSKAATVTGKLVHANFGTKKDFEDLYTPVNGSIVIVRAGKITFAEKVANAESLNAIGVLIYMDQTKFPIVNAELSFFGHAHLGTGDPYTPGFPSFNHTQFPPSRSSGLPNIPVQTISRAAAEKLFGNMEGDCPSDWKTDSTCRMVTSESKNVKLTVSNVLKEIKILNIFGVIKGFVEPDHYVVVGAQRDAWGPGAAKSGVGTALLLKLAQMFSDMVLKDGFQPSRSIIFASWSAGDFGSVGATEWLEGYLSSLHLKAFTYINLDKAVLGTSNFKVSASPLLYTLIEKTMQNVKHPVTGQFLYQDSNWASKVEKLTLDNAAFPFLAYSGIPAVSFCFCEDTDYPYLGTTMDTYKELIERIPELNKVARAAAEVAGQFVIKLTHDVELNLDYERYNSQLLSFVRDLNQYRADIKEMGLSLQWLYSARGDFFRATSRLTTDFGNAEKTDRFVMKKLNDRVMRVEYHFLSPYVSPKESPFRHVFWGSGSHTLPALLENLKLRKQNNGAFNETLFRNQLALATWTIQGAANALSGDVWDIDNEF

Row | Binder | Kd [4] | Kd [5] | further results
1 | B1 | – | – | binding result [1]: no binding; Kd [2]: 0.147 nM; Kd [3]: 0.62 nM
2 | B2 | 9.65 nM | – | –
3 | B3 | 1.32 nM | – | –
4 | B4 | – | 0.72 nM | –
5 | B5 | 0.16 nM | – | –
6 | B6 | – | 0.6 nM | –
7 | B7 | – | 1.82 nM | –
8 | B8 | – | 0.8 nM | –
9 | B9 | – | – | koff [6]: 0.000338 s⁻¹
10 | B10 | 0.84 nM | – | –
